Results published in paper PMC3777900.

Target: Mouse myosin 5a HMM (m5-HMM), heavy chain (mouse) (UniProt Q99104)
Assay: photo-bleaching step counting by TIRF microscopy; single molecules bound on a cover glass surface after exchange with Alexa488-CaM at 5:1 (Alexa488-CaM: myosin); step-wise photo-bleaching counted

Chain of UniProt Q99104 (Q99104 whole entry): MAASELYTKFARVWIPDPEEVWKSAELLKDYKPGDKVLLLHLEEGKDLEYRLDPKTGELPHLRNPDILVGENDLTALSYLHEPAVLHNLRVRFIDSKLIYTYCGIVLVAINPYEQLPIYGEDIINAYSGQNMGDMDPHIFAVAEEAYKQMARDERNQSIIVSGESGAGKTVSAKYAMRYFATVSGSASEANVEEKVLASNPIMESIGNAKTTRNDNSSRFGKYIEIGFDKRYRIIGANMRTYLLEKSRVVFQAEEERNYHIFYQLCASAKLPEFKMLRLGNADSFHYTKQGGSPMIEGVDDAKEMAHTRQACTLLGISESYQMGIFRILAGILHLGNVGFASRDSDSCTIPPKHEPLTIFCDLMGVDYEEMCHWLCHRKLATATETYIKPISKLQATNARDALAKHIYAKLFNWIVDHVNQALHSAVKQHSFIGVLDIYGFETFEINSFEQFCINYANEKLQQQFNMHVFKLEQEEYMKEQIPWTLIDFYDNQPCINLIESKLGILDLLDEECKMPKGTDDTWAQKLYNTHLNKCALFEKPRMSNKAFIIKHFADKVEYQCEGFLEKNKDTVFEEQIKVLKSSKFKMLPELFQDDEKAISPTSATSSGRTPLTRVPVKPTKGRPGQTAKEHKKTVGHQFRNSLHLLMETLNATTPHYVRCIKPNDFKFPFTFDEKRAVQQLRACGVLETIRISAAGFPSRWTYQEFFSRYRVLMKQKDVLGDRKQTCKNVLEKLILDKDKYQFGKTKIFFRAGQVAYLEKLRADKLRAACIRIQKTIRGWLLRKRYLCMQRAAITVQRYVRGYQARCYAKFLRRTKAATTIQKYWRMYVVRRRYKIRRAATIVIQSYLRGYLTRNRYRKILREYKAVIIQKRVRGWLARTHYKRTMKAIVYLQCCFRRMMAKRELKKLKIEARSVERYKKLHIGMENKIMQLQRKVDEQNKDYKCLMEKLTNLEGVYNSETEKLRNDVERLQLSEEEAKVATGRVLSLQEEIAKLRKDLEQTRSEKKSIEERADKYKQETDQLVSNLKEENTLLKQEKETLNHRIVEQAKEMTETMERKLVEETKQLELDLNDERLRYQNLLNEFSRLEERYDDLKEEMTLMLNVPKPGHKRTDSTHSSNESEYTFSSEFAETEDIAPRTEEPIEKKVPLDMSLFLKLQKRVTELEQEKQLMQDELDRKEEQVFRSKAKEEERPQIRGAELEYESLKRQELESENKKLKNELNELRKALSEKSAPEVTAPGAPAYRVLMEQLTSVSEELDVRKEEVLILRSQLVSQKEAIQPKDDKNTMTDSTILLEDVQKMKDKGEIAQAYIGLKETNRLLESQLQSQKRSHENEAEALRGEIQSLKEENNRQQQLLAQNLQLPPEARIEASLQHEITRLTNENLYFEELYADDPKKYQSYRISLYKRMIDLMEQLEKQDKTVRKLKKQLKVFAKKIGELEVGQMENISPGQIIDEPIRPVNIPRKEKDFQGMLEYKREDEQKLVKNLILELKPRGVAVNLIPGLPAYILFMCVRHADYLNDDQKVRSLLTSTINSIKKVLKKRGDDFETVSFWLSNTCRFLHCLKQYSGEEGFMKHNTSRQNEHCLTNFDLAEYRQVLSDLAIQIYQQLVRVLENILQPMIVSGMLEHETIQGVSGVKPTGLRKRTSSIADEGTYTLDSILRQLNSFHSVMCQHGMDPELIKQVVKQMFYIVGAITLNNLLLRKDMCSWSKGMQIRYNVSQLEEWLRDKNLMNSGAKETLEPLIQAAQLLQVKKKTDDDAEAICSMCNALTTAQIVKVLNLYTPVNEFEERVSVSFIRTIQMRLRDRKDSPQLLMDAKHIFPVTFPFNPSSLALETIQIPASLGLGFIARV

Row | stoichiometry N | Alexa488-CaM molecules exchanged into one myosin molecule | Substance
1 | 2 | – | Mouse myosin 5a HMM (m5-HMM), heavy chain (from UniProt Q99104 1-1853) (domain or fragment)
2 | – | 2 | Alexa Fluor 488-labeled bovine calmodulin (from UniProt P62157 1-149) (natural protein)
